Measured values published in publication PMC4146615.

How the values were obtained:
[1] = molecular target: T1, SoxR (Streptomyces coelicolor) (UniProt Q9S255); experiment: EMSA; details: EMSA: 10 mM Tris-HCl pH 8, 75 mM KCl, 0.1 mM DTT, 10% glycerol, 2 mM MgCl2, 0.1 ug poly(dI)-poly(dC), 2 mM dAMP, 30 uL, 6 fmol probe, SoxR 0-20 nM, 15 min …
T1 sequence: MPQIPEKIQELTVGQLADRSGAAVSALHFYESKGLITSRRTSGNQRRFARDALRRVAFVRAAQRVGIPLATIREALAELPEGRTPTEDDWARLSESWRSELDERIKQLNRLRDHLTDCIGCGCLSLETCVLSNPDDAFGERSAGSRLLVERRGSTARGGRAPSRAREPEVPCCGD

[2] = molecular target: T1, SoxR (Streptomyces coelicolor); experiment: competition; details: EMSA: 10 mM Tris-HCl pH 8, 75 mM KCl, 0.1 mM DTT, 10% glycerol, 2 mM MgCl2, 0.1 ug poly(dI)-poly(dC), 2 mM dAMP, 30 uL, 6 fmol probe, SoxR 0-20 nM, 15 min …

Substance | K_half [1] | binding [2] | Kd [1] [nM]
GACAGTCGTAGGCGGTTCCGCCCCTCCATACGTCACCCCTTGCCGACCGGCCCGACTCCACCGCGGACGACGGACGAGCCTTGACCTCGACCGGACTTGAGGTTGGAGGCTGGGCGGGATGTCGCCTCCAGTGAAGGGTGCTGCTCATGCATGCGATCCACGTGGCCTCGTTCGGTGCTCCGGACGTGCTGAGCCTGGTC (double strand) [SCO0320ext promoter probe] | binds | binds | –
SCO0321 upstream probe | – | – | > 20
SCO1177 upstream probe | – | – | > 20
ecaD (SCO4266) promoter probe | – | – | 5
